Source: publication PMC4764553, “Human cytomegalovirus IE1 protein alters the higher-order chromatin structure by targeting the acidic patch of the nucleosome” (eLife, 2016)
pKd: −log10 of the molar value. Like-named read-outs stand apart in the source and are kept apart here.

What was measured:
Assay in all cases: ITC
[1] = system: IE1-CTD (chromatin-tethering domain peptide);human histone octamer WT (human cytomegalovirus;Homo sapiens)
[2] = system: IE1 full length;human histone octamer WT (human cytomegalovirus (Towne);Homo sapiens)
[3] = system: IE1-CTD (chromatin-tethering domain peptide);human histone octamer WT (human cytomegalovirus;Homo sapiens); remark: listed apart in the source

## 147-bp Widom 601 (human NCP)
[1]
  pKd: 6.40
[2]
  pKd: 4.95
[3]
  pKd: 5.65
